*: point of attachment. FITC = O=C1OC2(c3ccc(O)cc3Oc3cc(O)ccc32)c2ccc(NC(=S)*)cc21; Ahx = NCCCCCC(=O)O

A word on the Kd: it is a measure of binding affinity in units of concentration.

This experiment addresses recombinant MCL1 (human) (UniProt Q07820). The experiment is described as follows: fluorescence polarisation; direct FPA: recombinant MCL1 with FITC-peptide, 30 min, 1× PBS pH 7.4; limit of detection of the probe 5 nM. For orientation: In fluorescence polarisation assays a small probe gives low polarisation when free and higher when bound to something large.

Sequence of recombinant MCL1 (human) (Q07820 whole entry): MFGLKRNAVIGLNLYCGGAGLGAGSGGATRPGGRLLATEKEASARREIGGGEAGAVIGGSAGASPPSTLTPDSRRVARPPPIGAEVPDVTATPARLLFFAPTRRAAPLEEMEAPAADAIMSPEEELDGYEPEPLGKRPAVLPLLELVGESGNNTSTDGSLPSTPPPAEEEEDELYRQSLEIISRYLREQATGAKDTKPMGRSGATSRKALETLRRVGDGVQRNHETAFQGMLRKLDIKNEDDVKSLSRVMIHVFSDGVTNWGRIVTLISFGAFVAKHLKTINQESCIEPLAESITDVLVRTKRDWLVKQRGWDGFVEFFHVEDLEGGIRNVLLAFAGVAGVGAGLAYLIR

For {FITC-Ahx}-GQVGRQLAIIGDDINRRYD-NH2 [FITC-AHX-BAK peptide], the dissociation constant (Kd) is under 5 nM.

Source of the values: article PMC7641127, “MCL1 binds and negatively regulates the transcriptional function of tumor suppressor p73” (Cell Death & Disease, 2020).
